Assay results reported in patent US20240182536A1 (MURAL ONCOLOGY, published 2024).
Positions count from the first letter of the chain named. In names and notes the source's numbering stands. Like-named read-outs stand apart in the source and are kept apart here.

T1: human IL-18 binding protein (human, UniProt O95998 31-194)
T1 sequence (looked up): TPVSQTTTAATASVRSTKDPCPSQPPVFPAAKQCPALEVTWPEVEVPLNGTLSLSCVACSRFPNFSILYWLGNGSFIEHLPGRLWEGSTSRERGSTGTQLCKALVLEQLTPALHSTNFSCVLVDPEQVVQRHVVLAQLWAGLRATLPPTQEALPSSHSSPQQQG

T2: IL-18 receptors on HEK-Blue IL-18 reporter cells (UniProt Q13478 19-541; O95256 20-599, limits assumed)
T2 sequence (looked up) 1: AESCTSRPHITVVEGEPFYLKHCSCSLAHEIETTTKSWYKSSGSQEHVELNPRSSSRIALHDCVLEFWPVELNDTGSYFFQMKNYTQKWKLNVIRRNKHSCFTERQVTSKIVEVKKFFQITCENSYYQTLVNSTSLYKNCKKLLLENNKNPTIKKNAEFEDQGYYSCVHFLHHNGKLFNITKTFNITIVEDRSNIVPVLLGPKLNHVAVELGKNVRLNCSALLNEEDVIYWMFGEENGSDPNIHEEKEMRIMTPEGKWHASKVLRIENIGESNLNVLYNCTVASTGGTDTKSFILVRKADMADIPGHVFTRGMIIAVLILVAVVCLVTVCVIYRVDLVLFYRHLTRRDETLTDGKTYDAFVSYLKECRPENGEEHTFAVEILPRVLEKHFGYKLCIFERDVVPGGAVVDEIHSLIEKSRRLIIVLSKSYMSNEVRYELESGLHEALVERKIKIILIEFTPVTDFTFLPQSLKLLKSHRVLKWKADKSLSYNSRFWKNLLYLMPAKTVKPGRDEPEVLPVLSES
T2 sequence (looked up) 2: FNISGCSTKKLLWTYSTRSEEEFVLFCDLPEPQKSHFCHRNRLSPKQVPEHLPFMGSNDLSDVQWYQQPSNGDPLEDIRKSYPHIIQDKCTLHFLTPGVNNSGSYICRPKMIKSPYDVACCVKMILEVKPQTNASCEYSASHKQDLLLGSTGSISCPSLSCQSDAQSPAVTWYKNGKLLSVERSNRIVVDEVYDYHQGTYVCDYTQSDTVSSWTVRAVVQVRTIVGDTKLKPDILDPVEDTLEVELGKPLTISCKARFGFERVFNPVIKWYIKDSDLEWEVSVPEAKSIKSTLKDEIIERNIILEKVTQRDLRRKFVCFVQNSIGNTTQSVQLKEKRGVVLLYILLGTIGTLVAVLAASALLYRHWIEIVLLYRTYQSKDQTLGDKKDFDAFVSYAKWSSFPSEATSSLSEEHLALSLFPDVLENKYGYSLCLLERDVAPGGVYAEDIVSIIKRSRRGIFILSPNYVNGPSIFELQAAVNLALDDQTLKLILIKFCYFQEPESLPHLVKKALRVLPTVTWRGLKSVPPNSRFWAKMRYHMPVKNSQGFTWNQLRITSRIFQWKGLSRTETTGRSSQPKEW

T3: interleukin 18 binding protein (IL-18BP) (UniProt O95998 31-194)
T3 sequence (looked up): T1 sequence (looked up)

T4: IL-18 receptors on HEK-Blue IL-18 reporter cells (UniProt Q13478 19-541; O95256 20-599, limits assumed)
T4 sequence (looked up) 1: T2 sequence (looked up) 1
T4 sequence (looked up) 2: T2 sequence (looked up) 2

B1: yeast display IL-18 variant K53S, S55K (ligand)
chain: YFGKLESKLSVIRNLNDQVLFIDQGNRPLFEDMTDSDMRDNAPRTIFIISMYSDKQPRGMAVTISVKSEKISTLSSENKIISFKEMNPPDNIKDTKSDIIFFQRSVPGHDNKMQFESSSYEGYFLASEKERDLFKLILKKEDELGDRSIMFTVQNED
B2: yeast display IL-18 variant K53T, S55A (ligand)
chain: B1 chain with S53T, K55A
B3: yeast display IL-18 variant K53S, S55Y (ligand)
chain: B1 chain with K55Y
B4: IL-18 variant T34N, S36N, D40E, N41G, K53S, S55Q, R104N, H109Y (ligand)
chain: B1 chain with T34N, S36N, D40E, N41G, K55Q, R104N, H109Y
B5: yeast display IL-18 variant K53T, S55P (ligand)
chain: B1 chain with S53T, K55P
B6: yeast display IL-18 variant K53S, S55G (ligand)
chain: B1 chain with K55G
B7: IL-18 variant T34S, S36Y, D37N, D40E, N41Q, K53Y, S55I (ligand)
chain: B1 chain with T34S, S36Y, D37N, D40E, N41Q, S53Y, K55I
B8: IL-18 variant S36F, N41E, K53W (ligand)
chain: B1 chain with S36F, N41E, S53W, K55S

Tests used:
Assay in all cases: cell-based or functional assay
[1] = biological target: T1, human IL-18 binding protein
[2] = biological target: T2, IL-18 receptors on HEK-Blue IL-18 …
[3] = biological target: T3, interleukin 18 binding protein (IL-18BP)
[4] = biological target: T4, IL-18 receptors on HEK-Blue IL-18 …; remark: listed apart in the source

Row | Binder | HEK-Blue activity, +100 nM BP, DF-10000 [1] | HEK-Blue activity, +100 nM BP, DF-100,000 [1] | HEK-Blue activity, +100 nM BP, DF-1,000,000 [1] | Ratio (-BP/+BP), DF-10000 [1] | Ratio (-BP/+BP), DF-100,000 [1] | Ratio (-BP/+BP), DF-1,000,000 [1] | HEK-Blue activity, No BP, DF-10000 [2] | HEK-Blue activity, No BP, DF-100,000 [2] | HEK-Blue activity, No BP, DF-1,000,000 [2] | HEK-Blue activity, +100 nM BP, DF-10000 [3] | HEK-Blue activity, +100 nM BP, DF-100,000 [3] | HEK-Blue activity, +100 nM BP, DF-1,000,000 [3] | Ratio (-BP/+BP), DF-10000 [3] | Ratio (-BP/+BP), DF-100,000 [3] | Ratio (-BP/+BP), DF-1,000,000 [3] | HEK-Blue activity, No BP, DF-10000 [4] | HEK-Blue activity, No BP, DF-100,000 [4] | HEK-Blue activity, No BP, DF-1,000,000 [4]
1 | B1 | 2.03 | 1.41 | 0.53 | 0.98 | 0.96 | 0.95 | 2 | 1.35 | 0.5 | – | – | – | – | – | – | – | – | –
2 | B2 | 1.85 | 0.95 | 0.32 | 0.97 | 1 | 0.89 | 1.8 | 0.96 | 0.29 | – | – | – | – | – | – | – | – | –
3 | B3 | 1.52 | 0.55 | 0.21 | 0.93 | 0.97 | 0.9 | 1.41 | 0.54 | 0.19 | – | – | – | – | – | – | – | – | –
4 | B4 | – | – | – | – | – | – | – | – | – | 0.09 | 0.09 | 0.09 | 0.95 | 1.01 | 0.95 | 0.09 | 0.09 | 0.08
5 | B5 | 1.53 | 0.65 | 0.21 | 0.93 | 0.91 | 0.79 | 1.42 | 0.59 | 0.16 | – | – | – | – | – | – | – | – | –
6 | B6 | 1.83 | 0.97 | 0.27 | 0.93 | 0.95 | 1.1 | 1.71 | 0.91 | 0.3 | – | – | – | – | – | – | – | – | –
7 | B7 | – | – | – | – | – | – | – | – | – | 0.09 | 0.09 | 0.12 | 0.98 | 0.96 | 0.75 | 0.09 | 0.09 | 0.09
8 | B8 | – | – | – | – | – | – | – | – | – | 0.09 | 0.1 | 0.09 | 1 | 1.01 | 0.91 | 0.09 | 0.1 | 0.09
